Data: patent US20250042997A1 (PHYLAXIS BIOSCIENCE, published 2025)
Numbering of substitutions follows the chain as printed. Values belong to the binder of their own block, whether it stands above or below them.

Tests used:
[1] = target: T1, human Siglec-8 (full-length, on transfected CHO or 293 cells, or native on human eosinophils) (human, UniProt Q9NYZ4 17-499); assay: flow cytometry on human eosinophils (CD16- CCR3+) from whole blood; anti-human AF647 secondary; MFI
Excerpt: To determine if increasing the valency of Siglec-8 antibodies could enhance agonist activity, the parental llama B12, D1 and E2 VHH sequences were used to generate tetravalent (Tet-B12 (cx8467; SEQ ID NO:50 linked to an Fe), Tet-D1 (cx8469; SEQ ID NO:56 linked to an Fe), and Tet-E2 (cx8463; SEQ ID NO:62 linked to an Fc)) and hexavalent (Hex-B12 (cx8466; SEQ ID NO:51 linked to an Fe), Hex-D1 (cx8523; SEQ ID NO:57 linked to an Fe), and Hex-E2 (cx8522; SEQ ID NO:165 linked to an Fc)), Siglec8-VHH-Fc antibodies linked to a reduced effector function xELL human Fc region via linker 2. The bivalent (Bi-B12 (cx8982), Bi-D1 (cx8983) and Bi-E2 (cx8984)), tetravalent, and hexavalent Siglec8-VHH-Fc antibodies were assessed by flow cytometry for binding to eosinophils (CD16⁻ CCR3⁺). Cells were isolated from whole blood by centrifugation, washed twice with 2% FBS PBS, and resuspended in 1×RBC lysis buffer for 10 minutes at room temperature (RT), washed once in 2% FBS PBS and treated with a second RBC lysis step and washed twice with 2% FBS. Cells were seeded at 200 k/well and resuspended in Human FC block for 10 minutes at RT. Cells were spun down and then resuspended in titrated test articles starting at 200 nM 1:4 and incubated for 30 minutes at 4° C. before being washed twice and resuspended in secondary mixture (2*; anti-CCR3 FITC, anti-human AF647, PI, anti-CD16 BV605) and incubated for 30 minutes at 4° C., washed twice, and bound antibodies were detected via flow cytometry (Novocyte).
As shown in FIG. 2A-2C, bivalent, tetravalent, and hexavalent Siglec8-VHH-Fc antibodies B12 (FIG. 2A), D1 (FIG. 2B) and E2 (FIG. 2C) bound to eosinophils. The calculated affinity was similar between the bivalent, tetravalent, and hexavalent hzSiglec8-VHH-Fc antibodies. The observed Bmax was reduced with increasing valency as anticipated, due the fact that the Fc portion of the antibody was detected in this assay and the ratio of Fc regions to anti-Siglec-8 binding domains is inverse to valency. No binding was observed on other granulocyte populations (CD16⁺ CCR3⁻).

[2] = target: T1, human Siglec-8 (full-length, on …); assay: flow cytometry on CHO cells transiently transfected with full-length human Siglec-8; A647 anti-human Fc-gamma secondary; Mean RL1-H
Protocol: (§1) Binding of the anti-human Siglec-8 VHHs, B12, D1, E2, and G2, as a bivalent VHH-hIgG1-xELL-Fc (VHH of SEQ ID NO: 49, 55, 61, and 1, respectively linked to an Fe xELL via linker 2, these constructs are also designated cx8982, cx8983, cx8984, and cx10382, respectively) was determined by flow cytometry using CHO cells that had been transiently transfected with full-length human Siglec-8. Binding specificity was assessed using untransfected (UT) CHO cells as a control. For the binding assays, 50,000 Siglec-8 CHOs or UT CHOs were seeded in a 96-well plate and a titration of anti-Siglec8-VHH-xELL was added in FACS Buffer (PBS 1% BSA, 0.1% NaN3 pH 7.4) incubating for 30 minutes at 4° C. After washing, the plates were incubated with an A647-conjugated anti-human Fcγ specific secondary antibody (Jackson ImmunoResearch) diluted 1:2000 in FACS buffer for 30 minutes at 4° C. The plates were washed, and binding was determined by flow cytometry quantitating anti-human A647 mean fluorescent intensity using an Intellicyt iQue Plus.
(§2) The binding was specific to Siglec-8 as there was no detectable binding to untransfected CHO cells for any of the tested constructs.

[3] = target: T1, human Siglec-8 (full-length, on …); assay: flow cytometry, CHO cells transiently transfected with full-length human Siglec-8 (apparent affinity)
Protocol: as §1, §2

[4] = target: T1, human Siglec-8 (full-length, on …); assay: flow cytometry on 293 cells transiently transfected with full-length human Siglec-8; A647 anti-human Fc-gamma secondary; median fluorescence, nonlinear fit; table under the graph
Protocol: (§3) The binding of the lmG2 and humanized versions (further including Siglec8 hzG2v14), formatted as monomeric VHH-hIgG1 fusions proteins using a non-dimerizing human IgG1 Fe variant region lacking a hinge Fe NNT, was assessed by flow cytometry using 293 cells that had been transiently transfected with full-length human Siglec-8 and detected with an anti-human AF647 secondary antibody. Binding specificity was assessed using untransfected 293 cells as a control. For the binding assays, Siglec-8 293 cells or untransformed 293 cells were seeded in a 96 well U-bottom plate with 50 k cells/well in FACS buffer and incubated at 4° C. with a titration of anti-Siglec8-VHH-NNT for 30 minutes. After washing, the plates were incubated with an A647-conjugated anti-human Fcγ specific secondary antibody diluted 1:10,000 in FACS buffer for 20 minutes at 4° C. The plates were washed, and binding was determined by flow cytometry quantitating anti-human A647 median fluorescent intensity. The maximum specific binding (Bmax) and affinity (Kd) for was determined from the flow cytometry binding data using a nonlinear fit model.

[5] = target: T1, human Siglec-8 (full-length, on …); assay: flow cytometry on 293 cells transiently transfected with full-length human Siglec-8; A647 anti-human Fc-gamma secondary; median fluorescence, nonlinear fit; table under the graph (Kd column without unit, concentration axis nM Ab)
Protocol: as §3

[6] = target: T1, human Siglec-8 (full-length, on …); assay: as above; remark: listed apart in the source
Protocol: as §3

T1 sequence (Q9NYZ4 17-499): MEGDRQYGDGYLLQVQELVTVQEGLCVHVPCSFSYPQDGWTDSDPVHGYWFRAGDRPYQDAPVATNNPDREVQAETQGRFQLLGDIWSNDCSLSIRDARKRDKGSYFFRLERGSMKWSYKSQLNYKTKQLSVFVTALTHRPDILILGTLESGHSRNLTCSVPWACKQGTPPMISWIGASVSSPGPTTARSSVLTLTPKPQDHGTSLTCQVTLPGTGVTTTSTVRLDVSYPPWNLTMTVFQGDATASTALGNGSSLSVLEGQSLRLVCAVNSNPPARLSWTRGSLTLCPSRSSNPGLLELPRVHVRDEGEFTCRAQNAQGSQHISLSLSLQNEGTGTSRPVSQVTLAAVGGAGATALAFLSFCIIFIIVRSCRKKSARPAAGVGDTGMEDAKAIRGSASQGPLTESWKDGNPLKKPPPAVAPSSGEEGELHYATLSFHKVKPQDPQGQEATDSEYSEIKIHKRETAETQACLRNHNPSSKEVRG

EC50 (read off the curve) [1]: ~0.1 nM
EC50 (read off the curve) [2]: ~0.4 nM
Kd [3]: 0.367 nM
B1: anti-Siglec8-B12-xELL, bivalent VHH-hIgG1-xELL-Fc (Fc fusion)
chain: QVQVVESGGGLVQPGGSLRLSCAASGSTSLLNAMAWYRQAPGKERELVAAISSGGGTYYADSVKGRFTISTNNAKNTLYLQMNSLKPEDTAMYYCAPGPNYSDYEEINWGQGTQVTVKPGGGGDKTHTCPPCPAPGGPSVFLFPPKPKDTLMISRTPEVTCVVVDVSHEDPEVKFNWYVDGVEVHNAKTKPREEQYNSTYRVVSVLTVLHQDWLNGKEYKCKVSNKALPAPIEKTISKAKGQPREPQVYTLPPSRDELTKNQVSLTCLVKGFYPSDIAVEWESNGQPENNYKTTPPVLDSDGSFFLYSKLTVDKSRWQQGNVFSCSVMHEALHNHYTQKSLSLSPGK
notes: Homodimer through the Fc; also called cx8982; Bi-B12

binding result [1]: binds
B2: Hex-E2, hexavalent Siglec8-VHH-Fc (xELL) (Fc fusion)
chain: QVQLVESGGGLVQPGGSLRLSCATSGIIFTSNVINWYRQAPGKQREFVAFITSITSGQSTMYADAVKGRFTVSRDNDKNIGYLQMTSLQPEDTARYVCNVGAYWGQGTQVTVKPGGSGGSQVQLVESGGGLVQPGGSLRLSCATSGIIFTSNVINWYRQAPGKQREFVAFITSITSGQSTMYADAVKGRFTVSRDNDKNIGYLQMTSLQPEDTARYVCNVGAYWGQGTQVTVKPGGSGGSQVQLVESGGGLVQPGGSLRLSCATSGIIFTSNVINWYRQAPGKQREFVAFITSITSGQSTMYADAVKGRFTVSRDNDKNIGYLQMTSLQPEDTARYVCNVGAYWGQGTQVTVKPGGGGDKTHTCPPCPAPGGPSVFLFPPKPKDTLMISRTPEVTCVVVDVSHEDPEVKFNWYVDGVEVHNAKTKPREEQYNSTYRVVSVLTVLHQDWLNGKEYKCKVSNKALPAPIEKTISKAKGQPREPQVYTLPPSRDELTKNQVSLTCLVKGFYPSDIAVEWESNGQPENNYKTTPPVLDSDGSFFLYSKLTVDKSRWQQGNVFSCSVMHEALHNHYTQKSLSLSPGK
notes: Homodimer through the Fc; also called cx8522

EC50 (read off the curve) [1]: ~0.1 nM
EC50 (read off the curve) [2]: ~0.4 nM
Kd [3]: 0.331 nM
B3: anti-Siglec8-E2-xELL, bivalent VHH-hIgG1-xELL-Fc (Fc fusion)
chain: QVQLVESGGGLVQPGGSLRLSCATSGIIFTSNVINWYRQAPGKQREFVAFITSITSGQSTMYADAVKGRFTVSRDNDKNIGYLQMTSLQPEDTARYVCNVGAYWGQGTQVTVKPGGGGDKTHTCPPCPAPGGPSVFLFPPKPKDTLMISRTPEVTCVVVDVSHEDPEVKFNWYVDGVEVHNAKTKPREEQYNSTYRVVSVLTVLHQDWLNGKEYKCKVSNKALPAPIEKTISKAKGQPREPQVYTLPPSRDELTKNQVSLTCLVKGFYPSDIAVEWESNGQPENNYKTTPPVLDSDGSFFLYSKLTVDKSRWQQGNVFSCSVMHEALHNHYTQKSLSLSPGK
notes: Homodimer through the Fc; also called cx8984; Bi-E2

EC50 (read off the curve) [2]: ~0.3 nM
Kd [3]: 0.268 nM
B4: anti-Siglec8-G2-xELL, bivalent VHH-hIgG1-xELL-Fc (Fc fusion)
chain: QVTLKESGGGLVRTGGSLRLSCAASGSISIFSMYVVAWYRQAPGKQREWVAFIQRGGTANYADSAKGRFTISRDNAKNTVYLQMASLKPDDTAVYYCNYINSDNEIGGPWGQGTQVTVKPGGGGDKTHTCPPCPAPGGPSVFLFPPKPKDTLMISRTPEVTCVVVDVSHEDPEVKFNWYVDGVEVHNAKTKPREEQYNSTYRVVSVLTVLHQDWLNGKEYKCKVSNKALPAPIEKTISKAKGQPREPQVYTLPPSRDELTKNQVSLTCLVKGFYPSDIAVEWESNGQPENNYKTTPPVLDSDGSFFLYSKLTVDKSRWQQGNVFSCSVMHEALHNHYTQKSLSLSPGK
notes: Homodimer through the Fc; also called cx10382

Bmax [4]: 1.17e+06 Median (anti-human A647)
Kd [5]: 0.145 nM
B5: Siglec8 hzG2v17, monomeric VHH-hIgG1 fusion (Fc NNT) (Fc fusion)
chain: EVQLLESGGGEVQPGGSLRLSCAASGSISIFSIYVVAWYRQAPGKEREWVAFIQRGGTANYAESAKGRFTISRDNAKNTVYLQMSSLRAEDTAVYYCNYINSDNEIGGPWGQGTLVTVKP
notes: Monomeric format; not shown: non-dimerizing human IgG1 Fc variant lacking a hinge (Fc NNT)

Bmax [4]: 1.24e+06 Median (anti-human A647)
Kd [5]: 41.9 nM
B6: hzG2v19 (Fc fusion)
VHH: B5 chain with I33S, V35A
notes: also called Siglec8 hzG2v19; monomeric VHH-hIgG1 fusion (Fc NNT); not shown: The non-dimerizing, hinge-less human IgG1 Fc variant (Fc NNT) and any linker to it

Kd [6]: 0.124 nM
B7: Siglec8 hzG2v30, monomeric VHH-hIgG1 fusion (Fc NNT) (Fc fusion)
chain: B5 chain with E11L, Q13R, P14T, I33M, E46Q
notes: as for B5

Kd [5]: 0.151 nM
B8: Siglec8 hzG2v26, monomeric VHH-hIgG1 fusion (Fc NNT) (Fc fusion)
chain: B5 chain with E11L, Q13R, I33M, E46Q
notes: as for B5

Kd [5]: 0.0912 nM
B9: Siglec8 hzG2v25, monomeric VHH-hIgG1 fusion (Fc NNT) (Fc fusion)
chain: B5 chain with E11L, P14T, I33M, E46Q
notes: as for B5

Bmax [4]: 1.05e+06 Median (anti-human A647)
Kd [5]: 0.263 nM
B10: Siglec8 hzG2v18, monomeric VHH-hIgG1 fusion (Fc NNT) (Fc fusion)
chain: B5 chain with I33K
notes: as for B5

Kd [6]: 0.0966 nM
B11: Siglec8 hzG2v28, monomeric VHH-hIgG1 fusion (Fc NNT) (Fc fusion)
chain: B5 chain with P14T, I33M, E46Q
notes: as for B5

Bmax [4]: 1.1e+06 Median (anti-human A647)
Kd [5]: 256 nM
B12: hzG2v21 (Fc fusion)
VHH: B5 chain with I33S, V35A, V36M, A37S
notes: also called Siglec8 hzG2v21; monomeric VHH-hIgG1 fusion (Fc NNT); not shown: The non-dimerizing, hinge-less human IgG1 Fc variant (Fc NNT) and any linker to it

Kd [6]: 0.111 nM
B13: Siglec8 hzG2v29, monomeric VHH-hIgG1 fusion (Fc NNT) (Fc fusion)
chain: B5 chain with Q13R, I33M, E46Q
notes: as for B5

EC50 (read off the curve) [1]: ~0.06 nM
EC50 (read off the curve) [2]: ~0.5 nM
Kd [3]: 0.427 nM
B14: anti-Siglec8-D1-xELL, bivalent VHH-hIgG1-xELL-Fc (Fc fusion)
chain: QVQLVESGGGLVQPGGSLRLSCAASGSIASIHGMGWYRQAPGKERELVAAIAGEGSTYYADSVKGRFTISRDFAKNTLYLQMNNLKAEDTAMYYCANNDERDDYWGQGTQVTVKPGGGGDKTHTCPPCPAPGGPSVFLFPPKPKDTLMISRTPEVTCVVVDVSHEDPEVKFNWYVDGVEVHNAKTKPREEQYNSTYRVVSVLTVLHQDWLNGKEYKCKVSNKALPAPIEKTISKAKGQPREPQVYTLPPSRDELTKNQVSLTCLVKGFYPSDIAVEWESNGQPENNYKTTPPVLDSDGSFFLYSKLTVDKSRWQQGNVFSCSVMHEALHNHYTQKSLSLSPGK
notes: Homodimer through the Fc; also called cx8983; Bi-D1
